Tests used:
human NAA40 WT = molecular target: T1, human NAA40 WT (Homo sapiens, UniProt Q86UY6); experiment: Fluorescence-based in vitro Nt-acetylation assay, N-terminal 17-mer peptides, wild-type NAA40; format: biochemical; settings: for Nt-acetylation by recombinant wild type NAA40: 17-mer peptide 15 μM, 0.1 μM hNAA40, 15 μM Thioglo4, 25 mM HEPES pH 7.5, 150 mM NaCl, 0.01% Triton X100, 5 min, fluorescence ex 410/em 475 nm, ΔRFU/min, triplicate, repeated two times, Fig. 1E
T1 construct: GST (N); made in house; host or cells: E. coli BL21 (DE3) codon plus RIL
Experimental: (§1) hNAA40 (NCBI: NM_024771.4) WT and E139Q were cloned in pGEX-5 × 1 vector. The plasmids were transformed in BL21 (DE3) codon plus RIL pACYC E. coli cells, generously provided by Till Bartke (Institute of Functional Epigenetics, Helmholtz Munich). The transformed bacteria were grown in 40 mL Lysogeny Broth (LB) medium complemented with 100 μg/mL Ampicillin (Sigma A9518) and 25 μg/mL Chloramphenicol (Sigma C0378-5G) for 16 h at 37 °C. Final culture volume was adjusted to 400 mL with LB and the growth was resumed for 2 h. Protein expression was initiated by adding 0.1 mM isopropyl β-D-1-thiogalactopyranoside (IPTG) (Thermo Fisher Scientific 15529019) and incubating further for 4 h at 37 °C. Bacteria were pelleted and resuspended in ice cold PBS/1% Triton-X100 supplemented with protease inhibitors. Cells were lysed by small probe sonication (amplitude 30%, 3 × 45 s on ice). Lysate bacteria were pelleted, and the supernatant was incubated with Glutathione agarose beads (Cytiva 17075601) for 1 h. Then, washing steps were made with ice cold PBS/1% Triton-X100 and ice-cold PBS. The beads with the recombinant GST-NAA40 WT or E139Q were stored at − 20 °C in 80% PBS/20% glycerol. To obtain the GST tagged hNAA40, the buffer 50 mM Tris HCL pH 8, 20 mM reduced Glutathione-20% glycerol was used to elute the GST-NAA40. To obtain the untagged version of hNAA40, hNAA40 was enzymatically cut by Factor Xa (NEB P8010S) from the beads and was dialyzed in 50 mM Tris–HCL pH 7.5, 100 mM NaCl, 25% Glycerol. The recombinant proteins were confirmed by SDS-PAGE and the concentrations were determined using the BIO-RAD protein assay dye reagent (BIO-RAD 5000006) and Nanodrop 1000.
An adaptation of the previous described fluorescence assay was used to study the kinetics of hNAA40 with the histone substrates H2A.X, H2A, and H4. Specifically, the full-length histone proteins H2A.X (TEBU BIO 23615-0307), H2A, H4, and H2B, and 17-mer peptides corresponding to the N-terminal end of H4, H2A.X, H2A.J, SMARCD2 were tested with WT or E139Q hNAA40. The peptides used in this study were synthesized by BIOSYNTAN GmbH, with > 95% purity. Final substrate concentration was 15μM for the rate comparison between WT and E139Q hNAA40 (ΔRFU/min), and for the Km determination the concentration ranged from 0.1 μM to 25 μM (1:2 dilutions). The reactions were in triplicate, repeated two times and contained 15 μM Thioglo4 (Merck 595504), 10 μM Acetyl coenzyme A lithium salt (Santa Cruz sc-214465), 25 mM HEPES pH 7.5, 150 mM NaCl, 0.01% Triton X100), 0.1μM hNAA40 in a final volume of 40 μl. The reaction was initiated with the addition of the substrate. The fluorescence was monitored with Tecan Spark multimode reader with excitation 410 ± 20 nm and emission 475 ± 20 nm, and the duration of the reaction was 5 min. We generated the standard curve y = 685.2*X-92.53 using 0–10 μM 1:2 dilutions of Coenzyme A sodium salt hydrate (Merck C13144) and 25 mM HEPES pH 7.5, 150 mM NaCl, 0.01% Triton X100. GraphPad Prism 8 was used for the enzyme kinetics analyses.

human NAA40 E139Q = experiment: Fluorescence-based in vitro Nt-acetylation assay, N-terminal 17-mer peptides, catalytically inactive NAA40 E139Q; format: biochemical; settings: 17-mer peptide 15 μM, 10 μM acetyl-CoA, 0.1 μM hNAA40 E139Q, 25 mM HEPES pH 7.5, 5 min, triplicate, repeated two times, Fig. 1E
Experimental: as §1
An adaptation of the previous described fluorescence assay was used to study the kinetics of hNAA40 with the histone substrates H2A.X, H2A, and H4. […] The fluorescence was monitored with Tecan Spark multimode reader with excitation 410 ± 20 nm and emission 475 ± 20 nm, and the duration of the reaction was 5 min. […]

Row | Substance | Nt-acetylation by recombinant wild type NAA40 (human NAA40 WT; 10 μM acetyl-CoA) | Nt-acetylation by catalytically inactive NAA40 (E139Q) (human NAA40 E139Q) | Michaelis constant (Km), stated as affinity (inverse measure) (human NAA40 WT; 17-mer peptides 0.1 μM to 25 μM (1:2 dilutions), 10 μM acetyl-CoA, 0.1 μM hNAA40, pH 7.5, Fig. 1F) | catalytic efficiency (kcat/Km) (human NAA40 WT; 17-mer peptides, Fig. 1H)
1 | H2A.J peptide: 17 amino acid long peptide corresponding to the N-terminal end of H2A.J (MSGRGKQGGKVRAKAKS; UniProt Q9BTM1 1-17, looked up, fragment) | Nt-acetylated by the wild-type | not the catalytically inactive human NAA40 | – | –
2 | H2A.X peptide: 17 amino acid long peptide corresponding to the N-terminal end of H2A.X (SGRGKTGGKARAKAKSR; UniProt P16104 2-18, looked up, fragment) | Nt-acetylated by the wild-type | not the catalytically inactive human NAA40 | – | –
3 | SMARCD2 peptide: 17 amino acid long peptide corresponding to the N-terminal end of SMARCD2 (MSGRGAGGFPLPPLSPG; UniProt Q92925 1-17, looked up, fragment) | Nt-acetylated by the wild-type | not the catalytically inactive human NAA40 | significantly lower | significantly lower than histones
